Measurements from US20240025999A1 (BIOVENTURES, published 2024).

T1: HPV 16 E6 91-115 region, given as three overlapping 15-mer peptides (91-105 YGTTLEQQYNKPLCD, SEQ ID NO:21); … (human papillomavirus type 16)
T1 peptide: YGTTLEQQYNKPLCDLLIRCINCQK

B1: TCR of clonotype 3 (TCR beta CDR3 CASSFPGENEQFF, SEQ ID NO:3), HPV 16 E6 91-115 specific T cell clonotype of subject 6 (TCR, V domains shown)
V domain 1: GDSVTQMEGPVTLSEEAFLTINCTYTATGYPSLFWYVQYPGEGLQLLLKATKADDKGSNKGFEATYRKETTSFHLEKGSVQVSDSAVYFCALTLSGSARQLTFGSGTQLTVLP
V domain 2: DAGVIQSPRHEVTEMGQEVTLRCKPISGHNSLFWYRQTMMRGLELLIYFNNNVPIDDSGMPEDRFSAKMPNASFSTLKIQPSEPRDSAVYFCASSFPGENEQFFGPGTRLTVLE
B2: TCR of clonotype 2 (TCR beta CDR3 CASSHNSGREGNEQFF, SEQ ID NO:2), HPV 16 E6 91-115 specific T cell clonotype of subject 6 (TCR, V domains shown)
V domain 1: GENVEQHPSTLSVQEGDSAVIKCTYSDSASNYFPWYKQELGKRPQLIIDIRSNVGEKKDQRIAVTLNKTAKHFSLHITETQPEDSAVYFCAPRVTGGGNKLTFGTGTQLKVEL
V domain 2: GAGVSQSPRYKVAKRGQDVALRCDPISGHVSLFWYQQALGQGPEFLTYFQNEAQLDKSGLPSDRFFAERPEGSVSTLKIQRTQQEDSAVYLCASSHNSGREGNEQFFGPGTRLTVLE
B3: TCR of clonotype 4 (TCR beta CDR3 CASSWEAGQETQYF, SEQ ID NO:4), HPV 16 E6 91-115 specific T cell clonotype of subject 6 (TCR, V domains shown)
V domain 1: GENVEQHPSTLSVQEGDSAVIKCTYSDSASNYFPWYKQELGKGPQLIIDIRSNVGEKKDQRIAVTLNKTAKHFSLHITETQPEDSAVYFCAASAPGRTDKLIFGTGTRLQVFP
V domain 2: KAGVTQTPRYLIKTRGQQVTLSCSPISGHRSVSWYQQTPGQGLQFLFEYFSETQRNKGNFPGRFSGRQFSNSRSEMNVSTLELGDSALYLCASSWEAGQETQYFGPGTRLLVLE
B4: TCR of clonotype 1 (TCR beta CDR3 CASSPTSGGLTWDEQYF, SEQ ID NO:1), HPV 16 E6 91-115 specific T cell clonotype of subject 6 (TCR, V domains shown)
V domain 1: AQSVAQPEDQVNVAEGNPLTVKCTYSVSGNPYLFWYVQYPNRGLQFLLKYITGDNLVKGSYGFEAEFNKSQTSFHLKKPSALVSDSALYFCAVRAPSGSARQLTFGSGTQLTVLP
V domain 2: EAGVAQSPRYKIIEKRQSVAFWCNPISGHATLYWYQQILGQGPKLLIQFQNNGVVDDSQLPKDRFSAERLKGVDSTLKIQPAKLEDSAVYLCASSPTSGGLTWDEQYFGPGTRLTVTE

Molecular target: T1, HPV 16 E6 91-115 region, given as three …
Assay: cell-based or functional assay

| Binder | Frequency (%) of the clonotype among IFN-gamma secreting cells sorted after peptide stimulation [%] |
| --- | --- |
| B1 | 9.8 |
| B2 | 17 |
| B3 | 8.6 |
| B4 | 33.3 |
